Measurements reported in US20160096866A1 (University of Pennsylvania, published 2016).
Where two headings read alike, the source gives them in different places. Each block holds one molecule with its values, some of them ahead of it. Bridges are numbered along the chain shown (N, C = ends). [ ]: non-standard residue; d: D form. Trp(1-Me) = Cn1cc(C[C@H](N)C(=O)O)c2ccccc21; 2Nal = N[C@@H](Cc1ccc2ccccc2c1)C(=O)O

Columns and labels:
[1] = biological target: T1, complement component C3 (human, UniProt P01024 23-1663, limits assumed); assay: cell-based or functional assay
[2] = biological target: T1, complement component C3; assay: cell-based or functional assay; remark: listed apart in the source
[3] = biological target: T1, complement component C3; assay: ITC; relative to the row 'Wild-type'
Protocol: Isothermal titration calorimetry experiments were performed using the Microcal VP-ITC calorimeter (Microcal Inc, Northampton, Mass.). Protein concentrations of 3.5-5 μM and peptide concentrations of 80-200 μM were used for these experiments. All titrations were performed in PBS (10 mM phosphate buffer with 150 mM NaCl, pH 7.4). In each experiment, the target protein, C3, was loaded into the cell, and peptide was loaded into the syringe. All experiments were performed at 25° C. and for each experiment, 2-μl peptide injections were made into the cell containing the protein. In each experiment, the raw isotherms were corrected for the heats of dilution by subtracting the isotherms representing peptide injections into the buffer. The resulting isotherms were fit to various models within the Origin 7.0 software, and the model that achieved the lowest chi square value was deemed to be appropriate for the respective dataset. Binding affinity and entropy values were plotted against log P values.
The calorimetric data obtained for the interaction of all the peptides with C3 fit to a one set of sites model with stoichiometry close to 1 (FIG. 4). […] As per the correlation, binding affinity increases with an increase in the hydrophobicity of the analog incorporated at position 4. This observation is consistent with the correlation shown between log P and the inhibitory constants.

[4] = biological target: T1, complement component C3; assay: cell-based or functional assay; remark: listed apart in the source

T1 sequence (P01024 23-1663 limits assumed): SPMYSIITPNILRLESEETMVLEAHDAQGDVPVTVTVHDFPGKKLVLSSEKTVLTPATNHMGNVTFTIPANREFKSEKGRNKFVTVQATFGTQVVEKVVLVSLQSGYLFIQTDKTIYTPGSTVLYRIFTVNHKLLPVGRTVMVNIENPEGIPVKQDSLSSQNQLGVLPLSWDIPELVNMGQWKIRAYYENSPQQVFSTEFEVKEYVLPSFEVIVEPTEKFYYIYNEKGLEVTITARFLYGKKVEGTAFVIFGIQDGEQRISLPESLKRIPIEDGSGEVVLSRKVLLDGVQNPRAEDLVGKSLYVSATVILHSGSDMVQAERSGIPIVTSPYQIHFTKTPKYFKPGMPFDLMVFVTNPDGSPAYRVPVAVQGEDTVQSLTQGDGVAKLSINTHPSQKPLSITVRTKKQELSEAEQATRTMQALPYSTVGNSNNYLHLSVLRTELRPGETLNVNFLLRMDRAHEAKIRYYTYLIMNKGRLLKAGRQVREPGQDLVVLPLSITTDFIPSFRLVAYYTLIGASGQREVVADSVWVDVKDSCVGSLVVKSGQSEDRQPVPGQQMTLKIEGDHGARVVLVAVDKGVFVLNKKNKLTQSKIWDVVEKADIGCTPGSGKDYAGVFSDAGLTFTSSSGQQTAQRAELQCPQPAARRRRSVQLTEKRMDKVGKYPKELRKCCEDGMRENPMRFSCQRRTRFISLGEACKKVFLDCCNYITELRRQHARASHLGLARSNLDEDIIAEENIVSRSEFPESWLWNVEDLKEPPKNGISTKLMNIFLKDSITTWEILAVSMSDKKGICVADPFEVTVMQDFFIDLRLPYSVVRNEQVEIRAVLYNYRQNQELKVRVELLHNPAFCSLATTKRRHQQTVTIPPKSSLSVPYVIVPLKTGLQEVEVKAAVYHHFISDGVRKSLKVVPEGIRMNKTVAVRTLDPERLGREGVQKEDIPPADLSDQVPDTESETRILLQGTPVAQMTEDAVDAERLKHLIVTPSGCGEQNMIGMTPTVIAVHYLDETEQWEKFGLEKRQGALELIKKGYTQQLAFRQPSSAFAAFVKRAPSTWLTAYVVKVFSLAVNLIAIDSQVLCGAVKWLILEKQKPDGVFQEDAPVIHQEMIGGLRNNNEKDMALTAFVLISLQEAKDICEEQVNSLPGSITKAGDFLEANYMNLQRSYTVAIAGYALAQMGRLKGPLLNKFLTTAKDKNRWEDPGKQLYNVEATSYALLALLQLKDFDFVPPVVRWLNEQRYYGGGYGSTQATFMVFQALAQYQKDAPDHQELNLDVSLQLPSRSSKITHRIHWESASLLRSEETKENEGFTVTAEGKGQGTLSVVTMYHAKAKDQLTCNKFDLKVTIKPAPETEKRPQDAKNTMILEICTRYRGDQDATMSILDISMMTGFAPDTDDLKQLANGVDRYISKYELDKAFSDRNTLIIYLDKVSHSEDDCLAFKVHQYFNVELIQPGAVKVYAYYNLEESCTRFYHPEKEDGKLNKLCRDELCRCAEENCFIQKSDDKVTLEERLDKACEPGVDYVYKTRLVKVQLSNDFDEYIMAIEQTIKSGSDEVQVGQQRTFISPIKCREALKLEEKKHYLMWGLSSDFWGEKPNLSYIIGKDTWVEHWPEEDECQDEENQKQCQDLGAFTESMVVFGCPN

- IC50, complement inhibition (C3b/iC3b deposition ELISA, human plasma) [1]: 33000 nM
- Relative activity (to compstatin, SEQ ID NO: 1) [1]: 1.6 fold
- loss of complement inhibitory activity relative to Ac-V4W/H9A [1]: 27.5 fold
Molecule: G(-1)/V4(5-OH-W)/W7(5-OH-W)/H9A/N14 (peptide)

- IC50, complement inhibition (C3b/iC3b deposition ELISA, human plasma) [1]: 460 nM
- Relative activity (to compstatin, SEQ ID NO: 1) [1]: 0.5 fold
Molecule: Ac-V4W/7(5-methoxy W)/H9A (peptide)

- IC50, complement inhibition (C3b/iC3b deposition ELISA, human plasma) [1]: 122000 nM
- Relative activity (to compstatin, SEQ ID NO: 1) [1]: 0.44 fold
Molecule: G(-1)/V4(7-aza-W)/W7(7-aza-W)/H9A/N14 (peptide)

- Activity over compstatin [1]: 45 fold
- IC50, complement inhibition (C3b/iC3b deposition ELISA, human plasma) [1]: 1200 nM
- Relative activity (to compstatin, SEQ ID NO: 1) [1]: 45 fold
Molecule: G(-1)/V4W/H9A/N14 (peptide)

- Activity over compstatin [1]: 126 fold
- IC50, complement inhibition (C3b/iC3b deposition ELISA, human plasma) [1]: 430 nM
- Relative activity (to compstatin, SEQ ID NO: 1) [1]: 126 fold
- complement inhibitory activity relative to Ac-V4W/H9A [1]: 2.8 fold
Molecule: G(-1)/V4(6fW)/W7(6fW)/H9A/N14 (peptide)

- Activity over compstatin [1]: 112 fold
- IC50, complement inhibition (C3b/iC3b deposition ELISA, human plasma) [1]: 480 nM
- Relative activity (to compstatin, SEQ ID NO: 1) [1]: 112 fold
- complement inhibitory activity relative to Ac-V4W/H9A [1]: 2.5 fold
Molecule: G(-1)/V4(5fW)/W7(5fW)/H9A/N14 (peptide)

- amount needed for the same complement inhibition as Ac-V4(1-methyl-W)/H9A [2]: 7 fold
B1: Ac-V4(1-methyl-W)/H9A-K-PEG 5000 (peptide)
peptide: ICVWQDWGAHRCTK
modifications: N-terminal acetyl; 1-methyltryptophan at position 4; lysine added at the C-terminus with PEG 5000 linked to its side chain

- amount needed for the same complement inhibition as Ac-V4(1-methyl-W)/H9A [2]: 7 fold
B2: 4(1MeW)-ABP (peptide)
peptide: Ac-ICV[Trp(1-Me)]QDWGAHRCTRLIEDICLPRWGCLWEDD-NH2
modifications: disulfide 2-12, 20-26

- -TΔΔS [3]: -3.99 kcal/mol
- ΔΔG [3]: -0.1 kcal/mol
- ΔΔH [3]: 3.87 kcal/mol
- IC50, complement inhibition (C3b/iC3b deposition ELISA, human plasma) [4]: 545 nM
B3: Ac-V4(2-Nal)/H9A (peptide)
peptide: Ac-ICV[2Nal]QDWGAHRCT-NH2
modifications: disulfide 2-12
SMILES: CC[C@H](C)[C@H](NC(C)=O)C(=O)N[C@H]1CSSC[C@@H](C(=O)N[C@H](C(N)=O)[C@@H](C)O)NC(=O)[C@H](CCCNC(=N)N)NC(=O)[C@H](Cc2c[nH]cn2)NC(=O)[C@H](C)NC(=O)CNC(=O)[C@H](Cc2c[nH]c3ccccc23)NC(=O)[C@H](CC(=O)O)NC(=O)[C@H](CCC(N)=O)NC(=O)[C@H](Cc2ccc3ccccc3c2)NC(=O)[C@H](C(C)C)NC1=O
notes: also called Ac-V4(2-Nal)/W7/H9A
